# B1: TPR t1 (parent)
# chain: GACCAAUCUGCCCUCAGAGCUCGAGAACAUCUUCGGAUGCAGAGGAGGCAGGCUUCGGUGGCGCGAUAGCGCCAACGUCCUCAACCUCCAAUGCAUCCCACCACAUGAUGAUGCCUGAAGAGCCUUGGUUUUUUG
# Variants of: B1
# Assay: polymerase ribozyme fitness, log enrichment relative to wild type (log ratio); higher = more active; in vitro selection for triplet polymerase activity
# Procedure, shortened: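 The heterodimeric triplet polymerase ribozyme's subunits were each mutagenized into PCR-built libraries and transcribed. Every library was selected once, in triplicate, by annealing with a biotinylated primer, the partner subunit and triplets, incubating frozen at −7 °C, gel-excising extended constructs, capturing on streptavidin beads and running RT-PCR. Input and output libraries were Illumina-sequenced, with genotypes kept only at ≥10 input reads and ≥1 read per output. Fitness, from inverse-variance-weighted replicate averages, is the base-2 logarithm of genotype enrichment over wild-type enrichment.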
row,Variant,polymerase ribozyme fitness (log ratio)
1,G47C G58A U112A G117U,-3.44
2,C4A A74C C123G U133G,0.795
3,C15U G71U C101U,-1.24
4,C56A C73U A84U G120U,-1.05
5,A27U G39U C72A,-3.78
6,U9G G61C,-1.59
7,G47C C88A C124A,-0.557
8,C13U A74C,0.251
9,A29U U32C G61C C70G C98A C114U,-5.96
10,C62U G69C,-3.19
11,C22G C40G G65U G69A C99A C101A C123U,-6.38
12,C11A C56U,-1.61
13,U7C G42C U87A,-1.73
14,A43U G77A G120A U134G,-0.215
15,C3U G10A G44C C49A G120U,0.0361
16,C13U C123A,1.1
17,C64A U78A G93A,-6.61
18,G60C C123U,0.343
19,C11U C62G,-1.21
20,G93C U130G,-1.51
21,A5U A50U A105U A119G,-1.86
22,C22G G47C C104A,-4.76
23,C8G C34A U55A C70G C104G G110A,-7.2
24,U9A G63U U96G G128A,-2.96

row,Variant,polymerase ribozyme fitness (log ratio)
1,C11A U30C,-5.07
2,C62G A121U,0.647
3,A16G U112A A119G,2.06
4,C13A A83U,-2.07
5,A84C G120U,1.51
6,G58A G63A C98U U112A,-4.56
7,G57U G61C U78G C114U A118U,-5.83
8,U32C A41C,-1.24
9,C8A C13U C31A G61U U96A C124G,-5.55
10,A18G G35A G69A G117A,-5.21
11,C49U G51U G71A C86U,-7.37
12,C13G G48A C56A C73A,-3.11
13,G36U U87C C115U A119G U131C,1.61
14,G71A G120C,0.139
15,U96C G110C,-4
16,U96G A108G G117A,-4.91
17,C70U C72A A103U A108G G110A,-6.1
18,G63A C70A A95C,-3.3
19,G19U U87G G110C U112G,-6.7
20,C12A C22G A27U,-4.16
21,C11G G107U,-3.64
22,U9A G117U,-1.08
23,C20A G42A G57U A100C,-6.04
24,C98U G117A,-2.99

row,Variant,polymerase ribozyme fitness (log ratio)
1,C13U C49U U55G U92A,-4.11
2,G17U G63C C73U,-1.67
3,G71U C82A U116A,-4.01
4,A24U C49A C82G U112A U133C,-4.62
5,A5G A43G C56U C80U,-2.61
6,C12U G47U A83C,-2.09
7,A5G A27U A46G,-2.16
8,C53A A84U G117U C123G,-0.712
9,C15A U106A,-1.94
10,G47U G71A U112C,-0.298
11,C101U A105C C114A,-6.11
12,A29G U87C G113U A121C,-3.46
13,G71C U81C A90G,-2.36
14,A37U A46U G47A U130G U131G,-3.56
15,G60U C79U U81A C97A U106A,-6.56
16,C40U C49A G61U C82G U131G,-0.822
17,A37G C89A,-2.41
18,C53U C97U,-0.844
19,C12G C70U,-0.468
20,A2U C114U,-4.35
21,C11A C94A U116A G120C,-0.809
22,C8U G17C G36C,-4.86
23,C11A C88A,-2.15
24,C8G G44C G60A,0.198

row,Variant,polymerase ribozyme fitness (log ratio)
1,C34A G65U C82G A111G U116G,-6.99
2,C12A A24C C97U,-7.95
3,C40G C70U U106A U116A G120C,-2.18
4,G42U U78C C123G,0.17
5,C8G A46G,0.594
6,U9C A68G,-2.42
7,G48U U112A,0.632
8,U7A C73A C88G A111U U129G,-6.86
9,C56G G127A G128A,-3.93
10,C34G C73U,-5.17
11,A66U C76U U106C A119G U126C U130A,-2.47
12,U14C G113A,-3.18
13,C101U G107A,-4.66
14,U14A G71A U130A,-3.52
15,U9C G10A G93A,-0.147
16,C20G G63U C82G G113C G128U,-4.75
17,C3U G52A C62U A121U,1.52
18,G17U C114U U125A,-5.53
19,C4A C70G C79A C114U,-5.9
20,G10A C62A U96A,-2.02
21,C11G C73U C85A A111G,-0.304
22,C8G C12G A46U,-0.837
23,C3U G45A A105U,-3.3
24,A50U U131A,-0.622

row,Variant,polymerase ribozyme fitness (log ratio)
1,G45C G69C,-2.23
2,C12U G69C C73U U129G,-3.42
3,C70A U112A,-0.662
4,C11G G42U A84U,-1.53
5,C8U C56U C70A,-4.3
6,C89A G110A,-3.58
7,A84U C97U,-0.894
8,C11G U59G U92A C114U A121C G128U,-3.21
9,A2C C8A G42C U54A U78A C98U G120A G127C,-2.04
10,C12A G42C C73A C80U A118G,-3.44
11,C28U C40A G120C,-2.59
12,C49U A91C C123A,-1.62
13,C72A C94U G120C,1.05
14,C62U U132A,-0.469
15,A6G G45A C72U U109G G120U,-5.05
16,G42C U133G,-1.65
17,C72G G135U,-0.702
18,C101U A111C U116G,-2.46
19,G63A C98U,-2.12
20,C34A C79G,-6.59
21,A18U A27G C53A G71C C85G,-8.07
22,C15U A41U G48U,-3.71
23,U59C G71U C88U U92A,-5.66
24,C4U G45U,-1.35

row,Variant,polymerase ribozyme fitness (log ratio)
1,U7G G39A G58A G69U C97U,0.0234
2,U9A U33G G36U U38G C53G C115G,-7.69
3,C3A G48U,-2.67
4,A6U C40G G51U,-4.16
5,U9A C56A G77U G117U,0.546
6,C20U G58A C73A G93C G117U,-5.31
7,G17C G63A G77U U81A A119G A121C,-5.23
8,U14C G93A G120C,-1.52
9,G42A C115A U130G,-2.13
10,G35U G36U C124U,-5.29
11,C12G G36C A66U C85U C86A,-3.38
12,C3U C28A A41G C56U G120C,-5.25
13,C64A C124A,-4.7
14,A16U C124U,0.484
15,U38A G120U,0.263
16,U55A G57A G71C G113A,-2.54
17,G63C G120C U131A,0.5
18,C56U G122A,-0.36
19,C104A C123U G128U U130A,-1.35
20,C102U G128C U129A,-4.82
21,G47U G63A U116A,-4.47
22,A6C A16C G44C,-3.74
23,C11U G45C,-1.59
24,U21G A27U G60U C80A C123G,-6.74

row,Variant,polymerase ribozyme fitness (log ratio)
1,A18C C72G C124A U129A,-3.56
2,C13U A50G C70U C79U C86G G117A,-2.99
3,A27U A43G,-5.43
4,U54G C86U G117U,-2.55
5,C8A C12U C114U U116G,-4.98
6,C15A C49G C98U,-3.16
7,G42C A66G C79U A121C U133G,-1.36
8,C11U U96G,-1.1
9,A18G C124A,-0.403
10,A91C G117C,-1.71
11,C4U C8G C34G A46U U59G C62U C102U G113U A121C U131G,-6.55
12,C11U G63A C72A,-7.14
13,C11G A29U A46G C72A A100C A119U,-3.42
14,C13G G52A C72G C85A,-4.46
15,A37U A41C C64A U109A G128U,-5.77
16,C34A C40U C85A,-5.11
17,C72G U132C,-0.428
18,C8A C40G A84U,-0.858
19,U33G G61A C80G A91C U92A C101U C115G,-8.32
20,C11G G44A G60A A121U,1.14
21,A6G G10A,0.127
22,G44A U87G U129G,-1.42
23,C34A A95U,-3.54
